Results reported in US20150267232A1, “IN VIVO AND IN VITRO CARBENE INSERTION AND NITRENE TRANSFER REACTIONS CATALYZED BY HEME ENZYMES” (California Institute of Technology, priority 2012, published 2015).

Columns and labels:
Type in all cases: biochemical
[1] = N—H insertion, aniline with ethyl diazo acetate (EDA)
Excerpt: We have found a variety of P450 variants to be general catalysts for carbenoid N—H insertion. We combined aniline with EDA in the presence of a reductant (Na2S2O4) under argon atmosphere and tested the mixture with seven P450BM3 variants previously identified as competent catalysts for cyclopropanation (Coelho, P. et al., Science. 2013, 339, 307-310). In choosing this set of P450s, we hypothesized that cyclopropanation activity could correlate with ability to generate the iron-carbenoid intermediate that is also necessary for N—H insertion. Whereas wild type BM3 (WT-BM3 (SEQ ID NO:1), Table 20, entry 1) provided only trace amounts of the desired product (4.3), a few variants gave 4.3 in good yields after 12 h at room temperature. In particular, variant H2-5-F10 which is derived from a thermostable P450BM3 lineage (Lewis, J. C. et al. ChemBioChem, 2010, 11, 2502-2505) and contains 15 mutation from WT-BM3 (SEQ ID NO:1), formed 4.3 in 47% yield and 473 turnovers (TTN) using 0.1% protein relative to EDA (entry 7). […] In contrast, when 1 mol % of the isolated hemin prosthetic group was used as catalyst, the single and double insertion products were produced in a 3.5 to 1 ratio (with a total product yield of 51%).
A representative procedure for P450-catalyzed N—H insertion is as follows. To an unsealed crimp vial, 60 μL of a P450 solution (67 or 133 μM) was added and the vial was sealed. A 12.5 mM solution of sodium dithionite in phosphate buffer (0.1 M, pH=8.0) was degassed by bubbling with argon in a 6 mL crimp-sealed vial. The headspace of the 2 mL vials containing P450 solution were flushed with argon (no bubbling). The buffer/dithionite solution (360 μL) was then added to each reaction vial via syringe, and the gas lines were disconnected from the vials. 10 μL of an 800 mM stock of aniline was added via a glass syringe, followed by 10 μL of a 340 mM stock of EDA (both stocks in MeOH). The reaction vials were then placed in a tray on a plate shaker and left to shake at 40 rpm. The final concentrations of the reagents were typically: 20 mM aniline, 8.5 mM EDA, 10 mM Na2S2O4, and 10 or 20 μM P450. After 12 h at 25° C., the vials were removed from the shaker and uncapped and 1 mL of cyclohexane was added, followed by 20 μL of a 20 mM solution of phenethyl alcohol (internal standard). The mixture was transferred to a 1.5 mL Eppendorf tube and vortexed and centrifuged (13,000×g, 1 min.). The organic layer was dried over sodium sulfate if necessary then analyzed by GC, with comparison to an authentically prepared sample that has been verified by proton NMR ([…], Varian, CDCl3).
Substitution is well-tolerated on the aniline partner on both the ortho and para positions. Reactions were analyzed by a Shimadzu GC with FID detector and J&W HP-5 column (30 m×0.32 mm, 0.25 μm film) and calibrated to an independently prepared sample of each product using phenethyl alcohol as internal standard. Reaction of aniline and EDA was also performed in milligram scale without any organic cosolvent to provide 4.3 in 65% isolated yield.
Calibration curves were plotted as follows. Yields of N—H insertion products were determined using calibration curves made with independently synthesized standards that have been verified by proton NMR, with comparison to known literature data (Baumann, L. K. et al. Organometallics. 2007, 26, 3995-4002; Anding, B. J. et al. Organometallics. 2013, 32, 2599-2607). Two stock solutions of product were made at 160 mM and 40 mM. To four or five samples containing 380 μL of buffer, product was added from either of the stock solutions such at a final concentration of 0.5-8.0 mM in 400 μL was obtained. 20 μL of internal standard was added to each eppendorf tube, then 1 mL of cyclohexane was added and the tubes were vortexed and centrifuged (13,000 ×g, 30 seconds). The organic layer was then analyzed by GC. The ratio of the areas under the internal standard and product peaks were plotted against the concentration for each solution. […]

[2] = N—H insertion, aniline with ethyl 2-diazopropanoate; conditions: protein 20 μM, diazo 10.0 mM, aniline 20 mM
Method: The reactions shown in FIG. 37A were carried out with protein (20 μM), ethyl diazo acetate (8.5 mM), aniline (20 mM) and Na2S2O4 (10 mM) in phosphate buffer (pH 8) and allowed to shake at room temperature for 12 h. Yields are reported in parenthesis and TTN are presented in italics. Yields were determined by GC calibrated for each product. An isolated yield of 65% for compound 4.3 was determined for the milligram scale reaction run as follows: 25 mM EDA, 25 mM aniline, 25 μM protein, and 25 mM Na2S2O4. The reaction producing compounds 4.5 and 4.10 were carried out with protein (20 μM), ethyl diazo acetate (10.0 mM), aniline (20 mM) and Na2S2O4 (10 mM).
While substituted diazo compounds can also be used for insertion, the yield from N—H insertion of ethyl 2-diazopropanoate into aniline is only 26% (product 4.5). To improve efficiency of this reaction, we examined the reaction of ethyl 2-diazopropanoate with a variety of axial mutants. In particular, the axial mutant WT-AxA provided the desired product in 83% yield, compared to 8% yield and 1.7% yield with axial mutant WT-AxS and WT-BM3 heme domain, respectively (FIG. 37B).
The reactions shown in FIG. 37B were carried out with 10 μM catalyst loading, 20 mM aniline, 10 mM Na2S2O4 and 10 mM ethyl 2-diazopropanoate as described above. For the final entry in FIG. 37B, whole cells expressing BM3-CIS-T438S at 2.5 μM were used. See, U.S. Provisional Application No. 61/711,640 for the procedure for catalysis with whole cells.

[3] = P450BM3 compilation plate screen (GC, cyclopropane peaks); conditions: P450BM3 variants
[4] = N—H insertion, diethyl amine and 4.11 (lidocaine synthesis); conditions: GC-MS
Method: Diazo amides are also competent substrates for this reaction, and alpha-amino amides like 4.10 (FIG. 37A) can be produced in moderate yields. This transformation is particularly valuable because diazo amides can give rise to important building block compounds like diamines Additionally, this transformation can be used for the synthesis of lidocaine, which we were able to prepare using diethyl amine and 4.11 in the presence of H2-5-F10 (Scheme 1). […] (hold 1 min), 100-140° C. (6° C./min), 140-260° C. (20° C./min), 260° C. (hold 3 min)

B1: H2-5-F10: 9-10A TS + F87V, L75A, I263A, T268A, L437A (protein, listed as Bacillus megaterium)
chain: TIKEMPQPKTFGELKNLPLLNTDKPVQALMKIADELGEIFKFEAPGRVTRYLSSQRLIKEACDESRFDKNLSQAAKFARDFAGDGLVTSWTHEKNWKKAHNILLPSFSQQAMKGYHAMMVDIAVQLVQKWERLNADEHIEVSEDMTRLTLDTIGLCGFNYRFNSFYRDQPHPFIISMVRALDEVMNKLQRANPDDPAYDENKRQFQEDIKVMNDLVDKIIADRKARGEQSDDLLTQMLNGKDPETGEPLDDGNIRYQIITFLAAGHEATSGLLSFALYFLVKNPHVLQKVAEEAARVLVDPVPSYKQVKQLKYVGMVLNEALRLWPTAPAFSLYAKEDTVLGGEYPLEKGDEVMVLIPQLHRDKTVWGDDVEEFRPERFENPSAIPQHAFKPFGNGQRACIGQQFALHEATLVLGMMLKHFDFEDHTNYELDIKETATLKPKGFVVKAKSKKIPLGGIPSPSTEQSAKKVRKKAENAHNTPLLVLYGSNMGTAEGTARDLADIAMSKGFAPQVATLDSHAGNLPREGAVLIVTASYNGHPPDNAKQFVDWLDQASADEVKGVRYSVFGCGDKNWATTYQKVPAFIDETLAAKGAENIADRGEADASDDFEGTYEEWREHMWSDVAAYFNLDIENSEDNKSTLSLQFVDSAADMPLAKMHGAFSTNVVASKELQQPGSARSTRHLEIELPKEASYQEGDHLGVIPRNYEGIVNRVTARFGLDASQQIRLEAEEEKLAHLPLAKTVSVEELLQYVELQDPVTRTQLRAMAAKTVCPPHKVELEALLEKQAYKEQVLAKRLTMLELLEKYPACEMKFSEFIALLPSIRPRYYSISSSPRVDEKQASITVSVVSGEAWSGYGEYKGIASNYLAELQEGDTITCFISTPQSEFTLPKDPETPLIMVGPGTGVAPFRGFVQARKQLKEQGQSLGEAHLYFGCRSPHEDYLYQEELENAQSEGIITLHTAFSRMPNQPKTYVQHVMEQDGKKLIELLDQGAHFYICGDGSQMAPAVEATLMKSYADVHQVSEADARLWLQQLEEKGRYAKDVWAG
modifications: cytochrome P450NADPH-P-450 reductase precursor, cytochrome P450 (BM3), CYP102A1
notes: 9-10A TS + F87V, L75A, I263A, T268A, L437A
- double insertion product ([1]; GC-MS and 1H NMR, milligram-scale reactions): No double insertion product was observed
- isolated yield of 4.3 ([1]; milligram scale, 25 mM EDA, 25 mM aniline, 25 μM protein, 25 mM Na2S2O4, no organic cosolvent): 65%
- TTn ([1]; protein 10 uM, EDA 8.5 mM, aniline 20 mM, Na2S2O4 10 mM, 12 h): 473
- % Yield ([1]; protein 10 uM, EDA 8.5 mM, aniline 20 mM, Na2S2O4 10 mM, 12 h, product 4.3): 47%
- yield of product 4.5 [2]: 26%
- ee (cis) ([3]; (R,S)-(S,R), chiral β-CDX GC): −56
- de ([3]; diastereomeric excess = ([cis] − [trans])/([cis] + [trans])): −46
- Absolute activity ([3]; sum of the area of the cyclopropane peaks over the area of the internal standard): 0.1412
- production of lidocaine [4]: Production of lidocaine was observed
